Experimental data reported in patent US20230287120A1 (ALLOGENE THERAPEUTICS, published 2023).

Tests used:
[1] = biological target: T1, human DLL3 extracellular domain (ECD) with C-terminal 8xHis tag and Avi tag (human, UniProt Q9NYJ7 27-492); assay: SPR (Biacore), 37 C; scFv-Fc captured on chip, human DLL3 ECD in solution; 1:1 Langmuir fit
T1 construct: extracellular domain; Expressed in Expi293, purified by IMAC and SEC; also called huDLL3; not shown: Avi tag
T1 sequence: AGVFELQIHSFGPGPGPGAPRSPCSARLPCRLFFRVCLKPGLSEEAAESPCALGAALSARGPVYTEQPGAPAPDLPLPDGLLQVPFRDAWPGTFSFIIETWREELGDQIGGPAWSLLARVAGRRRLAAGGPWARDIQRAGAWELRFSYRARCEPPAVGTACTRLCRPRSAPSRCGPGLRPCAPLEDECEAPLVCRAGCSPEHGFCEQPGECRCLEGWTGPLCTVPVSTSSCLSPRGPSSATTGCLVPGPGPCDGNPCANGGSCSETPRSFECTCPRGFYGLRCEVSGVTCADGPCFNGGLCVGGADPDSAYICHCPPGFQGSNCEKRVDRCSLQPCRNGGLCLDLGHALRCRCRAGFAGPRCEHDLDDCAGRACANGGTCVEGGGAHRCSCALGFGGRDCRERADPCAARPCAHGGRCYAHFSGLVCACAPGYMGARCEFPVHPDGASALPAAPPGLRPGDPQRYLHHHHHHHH

[2] = biological target: T2, cynomolgus monkey DLL3 extracellular domain (ECD) with C-terminal 8xHis tag and Avi tag (cynomolgus monkey, UniProt A0A2K5WSR1 27-490); assay: SPR (Biacore), 37 C; scFv-Fc captured on chip, cyno DLL3 ECD in solution; 1:1 Langmuir fit
T2 construct: extracellular domain; Expressed in Expi293, purified by IMAC and SEC; also called cynoDLL3; cyno DLL3; not shown: Avi tag
T2 sequence: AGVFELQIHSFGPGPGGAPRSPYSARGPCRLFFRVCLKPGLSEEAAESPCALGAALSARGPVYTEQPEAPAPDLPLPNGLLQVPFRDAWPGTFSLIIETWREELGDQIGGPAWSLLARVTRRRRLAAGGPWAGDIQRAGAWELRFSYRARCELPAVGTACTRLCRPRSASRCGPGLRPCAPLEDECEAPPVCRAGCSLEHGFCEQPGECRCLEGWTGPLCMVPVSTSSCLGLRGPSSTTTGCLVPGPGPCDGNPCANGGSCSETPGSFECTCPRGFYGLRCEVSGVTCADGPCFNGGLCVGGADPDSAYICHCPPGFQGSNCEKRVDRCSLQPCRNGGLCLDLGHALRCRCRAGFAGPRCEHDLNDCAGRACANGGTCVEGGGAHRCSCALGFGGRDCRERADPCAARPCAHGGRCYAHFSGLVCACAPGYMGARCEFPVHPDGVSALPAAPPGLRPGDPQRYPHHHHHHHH

[3] = biological target: T3, mouse DLL3 extracellular domain (ECD) with C-terminal 8xHis tag and Avi tag (mouse, UniProt O88516 33-490); assay: SPR (Biacore), 37 C; scFv-Fc captured on chip, mouse DLL3 ECD in solution; 1:1 Langmuir fit
T3 construct: extracellular domain; Expressed in Expi293, purified by IMAC and SEC; also called msDLL3; not shown: Avi tag
T3 sequence: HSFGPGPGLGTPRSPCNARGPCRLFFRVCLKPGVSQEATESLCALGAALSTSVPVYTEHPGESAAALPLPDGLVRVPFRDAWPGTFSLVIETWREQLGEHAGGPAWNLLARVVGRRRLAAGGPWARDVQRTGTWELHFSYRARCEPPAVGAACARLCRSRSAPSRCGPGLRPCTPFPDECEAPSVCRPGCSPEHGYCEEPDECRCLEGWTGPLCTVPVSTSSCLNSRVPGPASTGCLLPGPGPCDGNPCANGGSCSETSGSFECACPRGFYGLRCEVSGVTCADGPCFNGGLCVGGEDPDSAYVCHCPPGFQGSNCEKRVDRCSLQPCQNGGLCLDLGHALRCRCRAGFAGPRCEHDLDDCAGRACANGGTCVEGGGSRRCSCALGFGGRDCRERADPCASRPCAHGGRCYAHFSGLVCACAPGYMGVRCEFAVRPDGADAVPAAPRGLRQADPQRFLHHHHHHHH

B1: 3F2 scFv-Fc fusion (Fc fusion, not shown: a dimerising Fc or GST)
scFv: QVQLQESGPGLVKPSGTLSLTCAVSGGSISSNNWWSWVRQPPGKGLEWIGDIHHSGSTNYKPSLKSRVTISVDKSKNQFSLNLISVTAADTAVYYCAREAGGYFDYWGQGILVTVSSGGGGSGGGGSGGGGSGGGGSDIQMTQSPSTLSASVGDRVTITCRASQSISSWLAWYQQKPGKAPKLLISKASSLESGVPSRFSGSGSGPEFTLTISSLQPADFATYYCQQYNSYSTFGQGTKLEIK
notes: scFv-Fc expressed in Expi293
Binder B1 has a Kd [1] of 8.18 nM and a Kd [2] of 6.81 nM.

B2: 7F9 scFv-Fc fusion (Fc fusion, not shown: a dimerising Fc or GST)
scFv: EVQLVESGGGLVQPGGSLRLSCAASGFTFSSHDMHWVRQATGKGLEWVSAIGIAGDTYYSGSVKGRFTISRENAKNSLYLQMNSLRAGDTAVYYCARANWGEGAFDIWGQGTMVTVSSGGGGSGGGGSGGGGSGGGGSDIQMTQSPSSLSASVGDRVTITCRASQGISDYLAWYQQKPGKIPKLLIYAASTLQSGVPSRFSGSGSGTDFTLTISSLQPEDVATYYCQKYNSVPLTFGGGTKVEIK
notes: scFv-Fc expressed in Expi293
B2 showed a Kd [1] of 27.3 nM.

B3: 17A2 scFv-Fc fusion (Fc fusion, not shown: a dimerising Fc or GST)
scFv: QVQLQESGPGLVKPSGTLSLTCVVFGDSISSSNWWSWVRQPPGKGLEWIGEVFHSGSTNYNPSLKSRVTISVDKSKNQFSLKLSSVTAADTAVYYCARAAVAGALDYWGQGTLVTVSSGGGGSGGGGSGGGGSGGGGSDIVMTQSPDSLAVSLGERATINCKSSQSVLYSSNNKNYLAWYQQKPGQPPNLLVYWASTRESGVPDRFSGAGSGTDFTLTISSLQAEDVAVYYCQQYYGTSWTFGQGTKVEIK
notes: scFv-Fc expressed in Expi293
B3 showed a Kd [1] of 3.82 nM and a Kd [2] of less than 0.97 nM.

B4: 9D3 scFv-Fc fusion (Fc fusion, not shown: a dimerising Fc or GST)
scFv: QVQLQESGPGLVKPSETLSLTCTVSDDSISNYYWSWIRQPPGKGLEWIGYIFYSGTTNHNPSLKSRLTISLDKAKNQFSLRLSSVTAADTAVYYCARVFNWGFAFDIWGQGTMVTVSSGGGGSGGGGSGGGGSGGGGSEIVLTQSPGTLSLSPGERATLSCRASQRISRTYLAWYQQKPGQAPRLLIYGASSRATGIPDRFTGSGSGTDFTLTISRLEPEDFAVYYCQQYGTSPLTFGGGTKVEIN
notes: scFv-Fc expressed in Expi293
Work on B4 yielded a Kd [1] of 23.3 nM, a Kd [3] of 7.19 nM and a Kd [2] of 21.8 nM.

B5: 6F8 scFv-Fc fusion (Fc fusion, not shown: a dimerising Fc or GST)
scFv: QVQLVQSGAEVKKPGSSVKVSCKASGGTFTNYCISWVRQAPGQGLEWMGGIIPIFGTTNYAQTFQGRVTITADKSTSTAYMELSSLRSEDTAVYYCARDNGDRYYYDMDVWGQGTTVTVSSGGGGSGGGGSGGGGSGGGGSQSVLTQPPSVSAAPGQKVTISCSGSSSNIGNNYVSWYQQLPGTAPKLLIYDNNKRPSGIPDRFSGSKSGTSATLGITGLQTGDEADYYCGTWDSSLSAVVFGGGTKLTVL
notes: scFv-Fc expressed in Expi293
B5 gave a Kd [1] of 40.8 nM and a Kd [3] of 19.3 nM.

B6: 2G1 scFv-Fc fusion (Fc fusion, not shown: a dimerising Fc or GST)
scFv: QLQLQESGPGLVKPSETLSLTCTVSGGSISSSSYYWGWIRQPPGKGLEWIGSIYYSGNIYHNPSLKSRVSISVDTSKNQFSLRLSSVTAADTAVYYCAREIIVGATHFDYWGQGTLVTVSSGGGGSGGGGSGGGGSGGGGSAIQMTQSPSSLSASVGDRVTITCRASQGIRNDLGWYQQKPGKAPELLIYAASSLQSGVPSRFSGSGSGTDFTLTISSLQPEDFATYYCLQDYNYPLTFGPGTKVDIK
notes: scFv-Fc expressed in Expi293
B6 gave a Kd [1] of 17.2 nM, a Kd [3] of 2.61 nM and a Kd [2] of 20.5 nM.

B7: 9H12-K scFv-Fc fusion (Fc fusion, not shown: a dimerising Fc or GST)
scFv: QVQLVQSGAEVKKPGASVKVSCKASGYTFTGYSIHWVRQAPGQGLEWMGWINPNSGGTFYAQKFQGRVTMTRDTSISTVYMELSRLRSDDTAVYYCARDGWGDYYYYGLDVWGQGTTVTVSLGGGGSGGGGSGGGGSGGGGSDIQMTQSPSSVSASVGDRVTITCRASQDISSWLAWYQQKPGKAPKLLIYTASSLQGGVPSRFSGSGSGTDFTLTISSLQPEDLATYSCQQANVFPYTFGQGTKLEIK
notes: scFv-Fc expressed in Expi293
In the case of B7, the Kd [1] is reported as 186 nM.

B8: 4H8 scFv-Fc fusion (Fc fusion, not shown: a dimerising Fc or GST)
scFv: QVQLQQSGPGLVKPSQTLSLTCAISGDSVSSNSATWNWIRQSPSRGLEWLGRTYYRSKWYDDYAVSVKSRITINPDTSKNHLSLHLNSVTPEDTAVYYCAGGGLVGAPDGFDVWGQGTMVTVSSGGGGSGGGGSGGGGSGGGGSQSVLTQPPSASGTPGQRVTISCSGSSSNIGSDPVNWYQQLPGTAPKLLIYSNNQRPSGVPDRFSGSKSGTSASLAISGLQSEDEADYYCSAWDDSLNGYVFGTGTKVTVL
notes: scFv-Fc expressed in Expi293
With B8 the Kd [1] was 23.3 nM, the Kd [3] was 18.6 nM and the Kd [2] was 27 nM.

B9: 6D8 scFv-Fc fusion (Fc fusion, not shown: a dimerising Fc or GST)
scFv: QITLKESGPTLVKPTQTLTLTCTFSGFSLSTRGVGVGWIRQPPGKALEWLALIYWNDDKRYSPSLQTRLTITKDTPKNQVVLTMTNMDPVDTATYYCARSNWGNWYFALWGRGTLVTVSSGGGGSGGGGSGGGGSGGGGSEIVLTQSPATLSLSPGERATLSCRASQSVSSYLAWYQQKPGQAPRLLIYDAFYRATGIPARFSGSGSGTDFTLTISSLEPEDFAVYYCQHRSNWPITFGQGTRLEIK
notes: scFv-Fc expressed in Expi293
B9 showed a Kd [1] of less than 1.2 nM and a Kd [3] of less than 1.5 nM.

B10: 8E11 scFv-Fc fusion (Fc fusion, not shown: a dimerising Fc or GST)
scFv: QVQLQESGPGLVKPSETLSLTCTVSGDSISNYYWTWIRQPPGKGLEWIGYIYYSGTTNSNPSLKSRVTVSLDTSKSQFSLNLSSVTAADTAVYYCARVFNRGFAFDIWGQGTMVTVSSGGGGSGGGGSGGGGSGGGGSEIVLTQSPGTLSLSPGERATLSCRASQRISNTYLAWYQQKPGQAPRLLIYGASSRATGIPDRFSGSGSGTDFTLTISRLEPEDFAAYYCQQYDTSPLTFGGGTKVEIK
notes: scFv-Fc expressed in Expi293
Work on B10 yielded a Kd [1] of 11.2 nM, a Kd [3] of 7.03 nM and a Kd [2] of 10.5 nM.

B11: 26C8 scFv-Fc fusion (Fc fusion, not shown: a dimerising Fc or GST)
scFv: QVQLQESGPGLVKPSETLSLTCTVSDNSISNYYWSWIRQPPGKGLEWIAYIYYSGTTNYNPSLKSRVTISLDTSKNQFSLQLSSVTAADAAVYYCARVFHWGFAFDIWGQGTMVTVSSGGGGSGGGGSGGGGSGGGGSEIVLTQSPGTLSLSPGERATLSCRASQRVSNTYLAWYQQNPGQAPRLLIYGASSRATGIPDRFSGSGSGTDFTLTISRLEPEDFAVYYCQQYGTSPLTFGGGTKVEIK
notes: scFv-Fc expressed in Expi293
With B11 the Kd [1] was 5.53 nM, the Kd [3] was 3.05 nM and the Kd [2] was 4.51 nM.

B12: 2A6.C5 scFv-Fc fusion (Fc fusion, not shown: a dimerising Fc or GST)
scFv: QVQLQESGPGLVKPSETLSLTCTVSNVSISSYYWSWIRQPPGKGLEWIGYIYYSGTTNYNPSLKSRVTMSVDTSKNQFSLKLSSVTAADTAVYFCARLSNWGFAFDIWGQGTMVTFSSGGGGSGGGGSGGGGSGGGGSEIVLTQSPGTLSLSPGERATLSCRASQTISSSYLAWYQQKPGQAPRLLIYGASSRATGIPDRFSGSGSGTEFTLTISRLEPEDFAVYYCQQYGWSPITFGQGTRLEIK
notes: scFv-Fc expressed in Expi293
For B12, the Kd [1] was 48.4 nM, the Kd [3] was 42.1 nM and the Kd [2] was 46.8 nM.

B13: 10G1-K scFv-Fc fusion (Fc fusion, not shown: a dimerising Fc or GST)
scFv: EVQLLESGGGLVQPGGSLRLSCAASGFTFSSYAMNWVRQAPGKGLEWVSTISGSGGSTYYADSVKGRFTISRDNSKNTLYLQMNSLRAEDTAVFYCAIDPEYYDILTGGDYWGQGTLVTVSSGGGGSGGGGSGGGGSGGGGSDIQMTQSPSAMSASVGDRVTITCRASQGISNYLAWFQQKPGKVPKRLIYAASSLQSGVPSRFSGSGSGTEFTLTISSLQPEDFATYFCLQHDSFPLTFGGGTKVEIK
notes: scFv-Fc expressed in Expi293
Work on B13 yielded a Kd [1] of 26.3 nM, a Kd [3] of 27.7 nM and a Kd [2] of 28.8 nM.
